This passage reports Kd results from paper PMC6098246, “Zinc(II) binding on human wild-type ISCU and Met140 variants modulates NFS1 desulfurase activity” (Biochimie, 2018).

The target of test [1] is T1, NFS1-ISD11-ACP (SDA) complex (human | E. coli, UniProt Q9Y697 56-457; Q9HD34 1-91; P0A6A8 1-78).
T1 construct: human cysteine desulfurase NFS1, non-tagged, construct Δ1-55; human ISD11 (LYRM4), His-tagged; E. coli acyl carrier protein (ACP) of the expression host, co-purified with NFS1-ISD11; PLP was added during the purification; also called NFS1-ISD11-ACP desulfurase complex; NFS1-ISD11 complex; source: co-purified with E. coli ACP; copies: + +
Kind of test: BLI; biotinylated ISCU on streptavidin sensors, SDA 10 uM to 1.56 nM in solution; 25 °C; 50 mM HEPES pH 7.5, 200 mM NaCl, 5% glycerol, 2 mM TCEP, 5 mM DTT, 0.5 mg/mL BSA, with 300 uM EDTA (zinc-depleted ISCU); Kd from response vs. [NFS1], one site-specific binding fit. The note with it: both partners purified. In general terms: In BLI a coated tip is dipped into the sample, and binding shifts an interference pattern.

Test [2] addresses T1, NFS1-ISD11-ACP (SDA) complex. Kind of test: BLI; biotinylated ISCU on streptavidin sensors, SDA 10 uM to 1.56 nM in solution; 25 °C; 50 mM HEPES pH 7.5, 200 mM NaCl, 5% glycerol, 2 mM TCEP, 5 mM DTT, 0.5 mg/mL BSA, with 100 uM ZnCl2 (zinc-bound ISCU); Kd from response vs. [NFS1], one site-specific binding fit. The note with it: both partners purified.

Substitutions are numbered along the chain they refer to. Numbers in names are those of the source.

T1 sequence (Q9Y697 56-457, chain 1 of 3): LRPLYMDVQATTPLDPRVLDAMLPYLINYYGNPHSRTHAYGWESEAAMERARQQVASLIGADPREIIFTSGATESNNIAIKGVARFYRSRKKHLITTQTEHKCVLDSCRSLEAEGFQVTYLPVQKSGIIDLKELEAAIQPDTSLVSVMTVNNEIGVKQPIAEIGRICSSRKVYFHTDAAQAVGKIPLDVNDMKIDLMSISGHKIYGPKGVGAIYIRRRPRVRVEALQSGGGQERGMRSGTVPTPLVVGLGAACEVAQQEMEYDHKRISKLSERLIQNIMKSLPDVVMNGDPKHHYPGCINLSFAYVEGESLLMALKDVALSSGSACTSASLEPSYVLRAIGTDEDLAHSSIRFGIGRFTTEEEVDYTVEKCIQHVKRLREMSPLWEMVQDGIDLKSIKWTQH
T1 sequence (Q9HD34 whole entry, chain 2 of 3): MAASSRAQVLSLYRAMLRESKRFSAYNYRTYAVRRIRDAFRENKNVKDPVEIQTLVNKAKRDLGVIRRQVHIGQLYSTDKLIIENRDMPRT
T1 sequence (P0A6A8 whole entry, chain 3 of 3): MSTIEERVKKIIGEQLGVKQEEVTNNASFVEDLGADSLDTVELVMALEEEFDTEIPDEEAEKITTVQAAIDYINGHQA

B1: biotinylated human ISCU wild-type (Δ1-34) (natural protein, UniProt Q9H1K1 35-167, looked up)
chain: YHKKVVDHYENPRNVGSLDKTSKNVGTGLVGAPACGDVMKLQIQVDEKGKIVDARFKTFGCGSAIASSSLATEWVKGKTVEEALTIKNTDIAKELCLPPVKLHCSMLAEDAIKAALADYKLKQEPKKGEAEKK
modifications: biotin (site not stated)
notes: human ISCU, construct Δ1-34 of the 167-aa precursor (133-aa mature protein without the mitochondrial signal peptide); the two conditions are two assays; Measured mass of the apo-protein 14604 Da; also called ISCUWT; WT; source: E. coli BL21 (DE3)-R3-pRARE2, purified (Ni Sepharose, Superdex S75, His-tag removed by TEV)
A word on the Kd: it is a measure of binding affinity in units of concentration. B1: the Kd in test [1] came to 87.8 nM; in test [2] it was 160 nM.

B2: biotinylated human ISCU M140I (Δ1-34) (natural protein, UniProt Q9H1K1 35-167, looked up)
chain: B1 chain with M106I
modifications: biotin (site not stated)
notes: human ISCU, construct Δ1-34 of the 167-aa precursor, variant M140I; source: E. coli BL21 (DE3)-R3-pRARE2, purified (Ni Sepharose, Superdex S75, His-tag removed by TEV)
For the molecule B2, the Kd was determined as 97.3 nM in test [1] and 194 nM in test [2].

B3: biotinylated human ISCU M140L (Δ1-34) (natural protein, UniProt Q9H1K1 35-167, looked up)
chain: B1 chain with M106L
modifications: biotin (site not stated)
notes: human ISCU, construct Δ1-34 of the 167-aa precursor, variant M140L; source: E. coli BL21 (DE3)-R3-pRARE2, purified (Ni Sepharose, Superdex S75, His-tag removed by TEV)
Take B3: the dissociation constant (Kd) in test [1] is 110 nM; in test [2] it was 181 nM.

B4: biotinylated human ISCU M140V (Δ1-34) (natural protein, UniProt Q9H1K1 35-167, looked up)
chain: B1 chain with M106V
modifications: biotin (site not stated)
notes: human ISCU, construct Δ1-34 of the 167-aa precursor, variant M140V; source: E. coli BL21 (DE3)-R3-pRARE2, purified (Ni Sepharose, Superdex S75, His-tag removed by TEV)
For B4, the Kd in test [1] worked out at 85.5 nM; in test [2], 218 nM.
